Data reported in article PMC6372009.

Tests used:
[1] = target: mini-procollagen III; assay: SPR; Biacore T200; mini-procollagen III immobilised (240 RU), C1C2 wild-type or mutants injected, 50 μL/min, 25°C, 10 mM Na-Hepes pH 7.4, 0.15 M NaCl, 5 mM CaCl2, 0.05 % P20; 1:1 binding model
[2] = target: mini-procollagen III; assay: SPR; conditions: immobilized mini-procollagen III (240 RU), flow rate 50 μL/min, 25°C; for Kd: 1:1 binding model, parent: est. 1.4 nM, read off a plot

C1C2 fragment of PCPE-1, Arg91Ala mutant (pCEP-Pu construct) (from UniProt Q15113 1-252) (domain or fragment)
fold increase in dissociation constant against wild-type C1C2 [1]: 50 fold

C1C2 fragment of PCPE-1, wild-type control, pCEP-Pu construct (N-terminal APLA, C-terminal …) (from UniProt Q15113) L234E
Kd [2]: 20 nM

C1C2 fragment of PCPE-1, wild-type control, pCEP-Pu construct (N-terminal APLA, C-terminal …) (from UniProt Q15113) R55A
response ([2]; 48 nM C1C2, response at end of association (about 100 s), parent: est. 29, read off a …): 26 RU
Kd [2]: 2.6 nM

C1C2 fragment of PCPE-1, wild-type control, pCEP-Pu construct (N-terminal APLA, C-terminal …) (from UniProt Q15113) R55A; L234E
Kd [2]: 54 nM

C1C2 fragment of PCPE-1, wild-type control, pCEP-Pu construct (N-terminal APLA, C-terminal …) (from UniProt Q15113) R55A; R91A; L234E
Kd [2]: 120 nM

C1C2 fragment of PCPE-1, wild-type control, pCEP-Pu construct (N-terminal APLA, C-terminal …) (from UniProt Q15113) R91A
Kd [2]: 61 nM
